Laboratory results as given in publication PMC6286129, “CryoEM structures of open dimers of gyrase A in complex with DNA illuminate mechanism of strand passage” (eLife, 2018).

Tests used:
[1] = target: the molecule itself; assay: cryo-EM structure; Tetrahedral complex: GyrA-ΔCTD mixed with GyrB, 44 bp DNA, ciprofloxacin and novobiocin; purified on a glycerol/glutaraldehyde gradient (GraFix)
[2] = target: the molecule itself; assay: cryo-EM structure; Dihedral complex: GyrA-ΔCTD mixed with 44 bp DNA and ciprofloxacin, no GyrB; purified on a glycerol/glutaraldehyde gradient (GraFix); also a low resolution reconstruction without glutaraldehyde or antibiotics

B1: Streptococcus pneumoniae gyrase A subunit with truncated C-terminal domain (GyrA-ΔCTD, residues 1–487) (domain or fragment, UniProt P72524 1-487, looked up)
chain: MQDKNLVNVNLTKEMKASFIDYAMSVIVARALPDVRDGLKPVHRRILYGMNELGVTPDKPHKKSARITGDVMGKYHPHGDSSIYEAMVRMAQWWSYRYMLVDGHGNFGSMDGDSAAAQRYTEARMSKIALEMLRDINKNTVDFVDNYDANEREPLVLPARFPNLLVNGATGIAVGMATNIPPHNLGETIDAVKLVMDNPEVTTKDLMEVLPGPDFPTGALVMGKSGIHKAYETGKGSIVLRSRTEIETTKTGRERIVVTEFPYMVNKTKVHEHIVRLVQEKRIEGITAVRDESNREGVRFVIEVKRDASANVILNNLFKMTQMQTNFGFNMLAIQNGIPKILSLRQILDAYIEHQKEVVVRRTRFDKEKAEARAHILEGLLIALDHIDEVIRIIRASETDAEAQAELMSKFKLSERQSQAILDMRLRRLTGLERDKIQSEYDDLLALIADLADILAKPERVSQIIKDELDEVKRKFSDKRRTELMIG
notes: DNA gyrase subunit A, Streptococcus pneumoniae, gene cloned from the ATCC genome 700669DQ; residues 1-487 (C-terminal domain removed); The vector pMCSG7 adds 24 amino acids at the N-terminus, with a six amino acid His-tag and a TEV cleavage site; It forms open dimers that assemble around a 44 bp DNA into oligomers of four dimers (Dihedral complex) or six dimers (Tetrahedral complex); also called …
- stoichiometry N [1]: 12 monomers
- stoichiometry N [2]: 8 monomers
